Measured values taken from article PMC9505750.

Key:
Conditions in all cases: remark: other sources report otherwise
[1] = target: full-length wild-type APOBEC3G (human), Q9HC16; test: SEC-SAXS; ligand-free A3Gfl; SEC (Superdex 200 Increase 5/150 GL) with co-flow SAXS, 25 °C, 2.5 mg/mL A3Gfl loaded (about 1.3 mg/mL after SEC), 50 mM phosphate pH 6.0, 200 mM NaCl, 2 mM β-ME, 5% glycerol, 200 µM Na2-EDTA; species separated by SVD/EFA and Gaussian decomposition
[2] = target: full-length wild-type APOBEC3G (human), Q9HC16; test: as above; remark: listed apart in the source
[3] = target: full-length wild-type APOBEC3G (human), Q9HC16; test: SEC-SAXS; A3Gfl 2.5 mg/mL with the 40-mer ssDNA CCdZ-T30-oligo at a 1 to 2 molar ratio; SEC-SAXS, 25 °C, 50 mM phosphate pH 6.0, 200 mM NaCl, 2 mM β-ME, 5% glycerol, 200 µM Na2-EDTA; Gaussian decomposition

stoichiometry N [1]: 2
stoichiometry N [2]: 4
stoichiometry N [3]: 4
B1: full-length wild-type APOBEC3G, Q9HC16 1-384 (enzyme)
chain: MKPHFRNTVERMYRDTFSYNFYNRPILSRRNTVWLCYEVKTKGPSRPPLDAKIFRGQVYSELKYHPEMRFFHWFSKWRKLHRDQEYEVTWYISWSPCTKCTRDMATFLAEDPKVTLTIFVARLYYFWDPDYQEALRSLCQKRDGPRATMKIMNYDEFQHCWSKFVYSQRELFEPWNNLPKYYILLHIMLGEILRHSMDPPTFTFNFNNEPWVRGRHETYLCYEVERMHNDTWVLLNQRRGFLCNQAPHKHGFLEGRHAELCFLDVIPFWKLDLDQDYRVTCFTSWSPCFSCAQEMAKFISKNKHVSLCIFTARIYDDQGRCQEGLRTLAEAGAKISIMTYSEFKHCWDTFVDHQGCPFQPWDGLDEHSQDLSGRLRAILQNQEN
